For this test, the target named is purified soluble human FasL (AL-1) (human). Briefly: SEC.

For the substance “purified soluble human FasL (AL-1) (ligand)”, the stoichiometry N (commonly the number of molecules, sites or subunits per partner or assembly) turned out to be 3.

The values are drawn from PMC2199173.
